Experimental data: patent US20250092135A1 (NANJING LEADS BIOLABS, published 2025)

T1: Rhesus monkey MUC16-His (rhesus monkey)
T1 construct: The entry includes the C-terminal 6xHis tag; also called membrane-proximal end of the extracellular region of the rhesus monkey MUC16 protein
T1 chain: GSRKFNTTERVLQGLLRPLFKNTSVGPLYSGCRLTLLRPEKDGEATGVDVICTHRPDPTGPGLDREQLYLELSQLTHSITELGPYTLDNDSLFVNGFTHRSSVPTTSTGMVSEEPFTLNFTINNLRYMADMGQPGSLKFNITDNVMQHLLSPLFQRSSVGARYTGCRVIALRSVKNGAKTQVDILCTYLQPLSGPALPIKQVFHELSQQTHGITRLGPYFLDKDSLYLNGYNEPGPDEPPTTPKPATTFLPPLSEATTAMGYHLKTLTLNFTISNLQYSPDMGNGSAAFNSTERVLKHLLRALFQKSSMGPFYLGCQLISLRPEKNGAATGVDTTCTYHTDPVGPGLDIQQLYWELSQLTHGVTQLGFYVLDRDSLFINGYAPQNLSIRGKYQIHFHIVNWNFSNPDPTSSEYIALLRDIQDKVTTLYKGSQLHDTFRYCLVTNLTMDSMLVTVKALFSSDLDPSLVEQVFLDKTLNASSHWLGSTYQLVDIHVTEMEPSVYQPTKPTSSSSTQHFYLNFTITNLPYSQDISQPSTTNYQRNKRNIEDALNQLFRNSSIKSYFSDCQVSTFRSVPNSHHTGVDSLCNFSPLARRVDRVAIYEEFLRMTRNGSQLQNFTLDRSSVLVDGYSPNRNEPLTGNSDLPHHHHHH

T2: Human MUC16-His (human)
T2 construct: The entry includes the C-terminal 6xHis tag; also called membrane-proximal end of the extracellular region of the human MUC16 protein; Human MUC16 protein
T2 chain: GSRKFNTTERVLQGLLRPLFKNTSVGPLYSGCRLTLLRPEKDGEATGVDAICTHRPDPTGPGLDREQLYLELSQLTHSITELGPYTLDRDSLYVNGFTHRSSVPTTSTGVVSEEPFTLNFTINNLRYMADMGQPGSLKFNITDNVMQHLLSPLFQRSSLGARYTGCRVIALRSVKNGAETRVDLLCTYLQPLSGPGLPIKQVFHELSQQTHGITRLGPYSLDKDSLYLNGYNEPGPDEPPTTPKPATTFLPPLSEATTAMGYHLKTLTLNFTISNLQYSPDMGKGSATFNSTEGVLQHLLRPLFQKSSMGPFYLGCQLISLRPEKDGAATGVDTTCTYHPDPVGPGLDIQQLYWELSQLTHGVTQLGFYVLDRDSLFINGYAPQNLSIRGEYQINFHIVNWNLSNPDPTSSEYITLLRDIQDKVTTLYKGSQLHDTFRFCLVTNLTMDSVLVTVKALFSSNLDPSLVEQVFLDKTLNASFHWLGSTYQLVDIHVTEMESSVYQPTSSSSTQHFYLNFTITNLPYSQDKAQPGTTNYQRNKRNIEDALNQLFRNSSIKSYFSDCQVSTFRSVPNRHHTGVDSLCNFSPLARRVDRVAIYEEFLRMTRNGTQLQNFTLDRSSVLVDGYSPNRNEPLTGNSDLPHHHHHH

B1: anti-CD3/MUC16 bispecific antibody MCH7-23L2-MCH7 (bispecific antibody, human IgG1, kappa, L234A L235A)
heavy 1: QVQLVQSGAEVKKPGASVKVSCKASGYTFTDYNIHWVRQAPGQGLEWMGYIYPYNGVSDYNQNFKSRVTMTTDTSTSTAYMELRSLRSDDTAVYYCARWDFGSGYYFDYWGQGTLVTVSSASTKGPSVFPLAPSSKSTSGGTAALGCLVKDYFPEPVTVSWNSGALTSGVHTFPAVLQSSGLYSLSSVVTVPSSSLGTQTYICNVNHKPSNTKVDKKVEPKSCEVQLVESGGGLVQPGGSLKLSCAASGFTFSTYAMNWVRQAPGKGLEWVGRIRSKYNNYATYYADSVKDRFTISRDDSKNTLYLQMNSLKTEDTAVYYCTRHGNFGNSYVSWFAYWGQGTTVTVSSGGGGSGGGGSGGGGSQAVVTQEPSLTVSPGGTVTLTCRSSTGAVTTSNYANWVQQKPGQAPRGLIGGTNKRAPGVPARFSGSLLGGKAALTLSGAQPEDEAEYFCALWYSNLWVFGGGTKLTVLGEPKSSDKTHTCPPCPAPEAAGGPSVFLFPPKPKDTLMISRTPEVTCVVVAVSHEDPEVKFNWYVDGVEVHNAKTKPREEQYNSTYRVVSVLTVLHQDWLNGKEYKCKVSNKALAAPIEKTISKAKGQPREPQVCTLPPSRDELTKNQVSLSCAVKGFYPSDIAVEWESNGQPENNYKTTPPVLDSDGSFFLVSKLTVDKSRWQQGNVFSCSVMHEALHNHYTQKSLSLSPGK
heavy 2: not shown
light: EIVLTQSPATLSLSPGERATLSCRASSSVIYMSWYQQKPGQAPRLLIYGTSTLASGIPARFSGSGSGTDFTLTISSLEPEDFAVYYCQQWSSNPFTFGQGTKLEIKRTVAAPSVFIFPPSDEQLKSGTASVVCLLNNFYPREAKVQWKVDNALQSGNSQESVTEQDSKDSTYSLSSTLTLSKADYEKHKVYACEVTHQGLSSPVTKSFNRGEC
notes: MCH7-23L2ScFv-Hole (VH-CH1-scFv-Fc) + MCH7-KIH-Knob + two light chains MCL4 LC
B2: anti-MUC16 antibody 776.1(C33S) (antibody, human IgG1, kappa, L234A L235A, V domains shown)
VH: EVQLQQSGPELVKPGASVKISCKASGYTFTDYNIHWVKQSHGKILEWIGYIYPYNGVSDYNQNFKSKATLIVDNSSNTAYMELRSLTSEDSAVYYCARWDFGSGYYFDYWGQGTTLTVSS
VL: QIVLSQSPAILFASPGETVTMTCRASSSVIYMSWNQQKPGSSPKPWIYGTSTLASGVPTRFSGSGSGTSYSLTISRVEAEDAATYYCQQWSSNPFTFGSGTKLEIKR

Assays:
[1] = target: T3, human CD3 protein endogenously expressed on Jurkat cells (human, UniProt P07766 23-207); assay: flow cytometry, Jurkat cells (endogenous CD3), PE anti-human IgG Fc secondary, MFI; EC50 table under the plot, unit from the axis Conc.(nM); curve flat at about 1250 up to about 33 nM, about 1900-2200 at the two top concentrations
T3 construct: whole, on cells; The whole CD3 complex is on the cells; also called CD3 on Jurkat cells; CD3 on Jurkat/NFAT-luc cells
T3 sequence (P07766 23-207): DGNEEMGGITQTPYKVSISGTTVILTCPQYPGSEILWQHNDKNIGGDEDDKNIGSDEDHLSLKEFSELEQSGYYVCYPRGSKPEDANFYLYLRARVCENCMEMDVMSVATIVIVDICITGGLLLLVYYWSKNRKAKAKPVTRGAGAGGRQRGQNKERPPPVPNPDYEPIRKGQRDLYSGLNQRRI
Experimental: (3) Whether the anti-CD3/anti-MUC16 bispecific antibodies in the present invention could bind to the CD3 protein endogenously expressed on Jurkat cells (Cell Bank of Type Culture Collection Committee of the Chinese Academy of Sciences, Cat #SCSP-513) was determined by cell binding experiments. Detection was performed using the flow cytometry described above, with the following differences: the dilution gradient for the test bispecific antibody was: a maximum concentration of 200 nM, starting from a second concentration of 100 nM, 5-fold dilution, 10 points; the bispecific antibodies were added to Jurkat cells, and the cells were incubated at 4° C. for 30 min. The cells were washed twice with PBS, and then fluorescent secondary antibody R-PE-conjugated AffiniPure Goat Anti-Human IgG, Fcγ Fragment Specific was added. The cells were incubated at 4° C. for 30 min. The cells were washed twice with PBS and then resuspended, and finally, fluorescence signals were detected using a BD Accuri C5 (BD Bioscience) flow cytometer.

Rhesus monkey MUC16-His = target: T1, Rhesus monkey MUC16-His; assay: BLI (ForteBio Octet RED96), antibody on AHC sensor, 50 nM antigen, 1:1 model
Description: (§1) The binding affinity of the anti-MUC-16 antibodies for the membrane-proximal end of the extracellular region of the human MUC16 protein (human MUC16-His, Table 26) and the membrane-proximal end of the extracellular region of the rhesus monkey MUC16 protein (rhesus monkey MUC16-His, Table 26) was detected by ForteBio Octet RED96, respectively. According to the manufacturer's instructions, an AHC sensor (ForteBio, Cat #18-5060) was placed in a running buffer (lx PBS, Hyclone, Cat #SH30256.01, containing 0.02% Tween 20, pH 7.0) and pre-equilibrated at room temperature for 10 min. In a 96-well plate, the kinetic assay was performed according to the following steps: a) equilibrating the baseline for 100 s with the running buffer; b) diluting the anti-MUC-16 antibodies with the running buffer to 5 μg/mL, immobilizing for 200 s, and stopping; c) equilibrating the baseline for 300 s with the running buffer; and d) diluting the human or rhesus monkey MUC16 protein with the running buffer to 50 nM, binding for 200 s, and dissociating for 600 s. The experimental data were fitted and calculated using a Fortebio Data Analysis software 1:1 binding model.

Human MUC16-His = target: T2, Human MUC16-His; assay: as above
Description: as §1

Row | EC50 [1] [nM] | Kd (Rhesus monkey MUC16-His) [nM] | koff (Rhesus monkey MUC16-His) [s⁻¹] | kon (Rhesus monkey MUC16-His) [M⁻¹ s⁻¹] | Kd (Human MUC16-His) [nM] | koff (Human MUC16-His) [s⁻¹] | kon (Human MUC16-His) [M⁻¹ s⁻¹] | Binder
1 | ~39.3 |  |  |  |  |  |  | B1
2 |  | 1.03 | 0.000826 | 803000 | 0.921 | 0.000245 | 266000 | B2
